Measurements as given in ChEMBL document CHEMBL1135342, “Synthesis and evaluation of thymidine-5'-O-monophosphate analogues as inhibitors of Mycobacterium tuberculosis thymidylate kinase” (Bioorg Med Chem Lett, 2002).

How the values were obtained:
[1] = substrate: Cc1cn(-c2ccc(COP(=O)(O)O)o2)c(=O)[nH]c1=O; assay: (§1) Compound was tested for binding affinity against Mycobacterium tuberculosis thymidine monophosphate kinase
[2] = substrate: Cc1cn([C@H]2C[C@H](F)[C@@H](COP(=O)(O)O)O2)c(=O)[nH]c1=O; assay: as §1
[3] = substrate: Cc1cn([C@H]2C[C@H](O)[C@@H](COP(=O)(O)O)O2)c(=O)[nH]c1=O; assay: as §1
[4] = substrate: O=c1[nH]c(=O)n([C@H]2C[C@H](O)[C@@H](COP(=O)(O)O)O2)cc1Br; assay: as §1
[5] = substrate: O=c1[nH]c(=O)n([C@H]2C[C@H](O)[C@@H](COP(=O)(O)O)O2)cc1F; assay: as §1
[6] = substrate: O=c1[nH]c(=O)n([C@H]2C[C@H](O)[C@@H](COP(=O)(O)O)O2)cc1I; assay: as §1
[7] = substrate: O=c1ccn([C@H]2C[C@H](O)[C@@H](COP(=O)(O)O)O2)c(=O)[nH]1; assay: as §1

B1: Thymidylate kinase (Mycobacterium tuberculosis), P9WKE1 (protein)
chain: MLIAIEGVDGAGKRTLVEKLSGAFRAAGRSVATLAFPRYGQSVAADIAAEALHGEHGDLASSVYAMATLFALDRAGAVHTIQGLCRGYDVVILDRYVASNAAYSAARLHENAAGKAAAWVQRIEFARLGLPKPDWQVLLAVSAELAGERSRGRAQRDPGRARDNYERDAELQQRTGAVYAELAAQGWGGRWLVVGADVDPGRLAATLAPPDVPS
Km [1]: 140 µM | Km [2]: 30 µM | Km [3]: 4.5 µM | Km [4]: 33 µM | Km [5]: 420 µM | Km [6]: 140 µM | Km [7]: 2100 µM
